Laboratory results taken from article PMC7886851 (Scientific Reports, 2021).

B1: YidC23C labelled with Atto520 (YidC W23C, single cysteine) (natural protein)
chain: MDSQRNLLVIALLFVSFMIWQACEQDKNPQPQAQQTTQTTTTAAGSAADQGVPASGQGKLISVKTDVLDLTINTRGGDVEQALLPAYPKELNSTQPFQLLETSPQFIYQAQSGLTGRDGPDNPANGPRPLYNVEKDAYVLAEGQNELQVPMTYTDAAGNTFTKTFVLKRGDYAVNVNYNVQNAGEKPLEISSFGQLKQSITLPPHLDTGSSNFALHTFRGAAYSTPDEKYEKYKFDTIADNENLNISSKGGWVAMLQQYFATAWIPHNDGTNNFYTANLGNGIAAIGYKSQPVLVQPGQTGAMNSTLWVGPEIQDKMAAVAPHLDLTVDYGWLWFISQPLFKLLKWIHSFVGNWGFSIIIITFIVRGIMYPLTKAQYTSMAKMRMLQPKIQAMRERLGDDKQRISQEMMALYKAEKVNPLGGSFPLLIQMPIFLALYYMLMGSVELRQAPFALWIHDLSAQDPYYILPILMGVTMFFIQKMSPTTVTDPMQQKIMTFMPVIFTVFFLWFPSGLVLYYIVSNLVTIIQQQLIYRGLEKRGLHSREKKKS
modifications: Atto520 (maleimide dye) on cysteine 23; labelling efficiency 18%
B2: SecYEG with SecY142C labelled with Atto647N (complex)
chain 1: MAKQPGLDFQSAKGGLGELKRRLLFVIGALIVFRIGSFIPIPGIDAAVLAKLLEQQRGTIIEMFNMFSGGALSRASIFALGIMPYISASIIIQLLTVVHPTLAEIKKEGESGRRKISQYTRYGTLVLAIFQSIGIATGLPNCPGMQGLVINPGFAFYFTAVVSLVTGTMFLMWLGEQITERGIGNGISIIIFAGIVAGLPPAIAHTIEQARQGDLHFLVLLLVAVLVFAVTFFVVFVERGQRRIVVNYAKRQQGRRVYAAQSTHLPLKVNMAGVIPAIFASSIILFPATIASWFGGGTGWNWLTTISLYLQPGQPLYVLLYASAIIFFSFFYTALVFNPRETADNLKKSGAFVPGIRPGEQTAKYIDKVMTRLTLVGALYITFISLIPEFMRDAMKVPFYFGGTSLLIVVVVIMDFMAQVQTLMMSSQYESALKKANLKGYGR
chain 2: MSANTEAQGSGRGLEAMKWVVVVALLLVAIVGNYLYRDIMLPLRALAVVILIAAAGGVALLTTKGKATVAFAREARTEVRKVIWPTRQETLHTTLIVAAVTAVMSLILWGLDGILVRLVSFITGLRF
chain 3: MYEALLVVFLIVAIGLVGLIMLQQGKGADMGASFGAGASATLFGSSGSGNFMTRMTALLATLFFIISLVLGNINSNKTNKGSEWENLSAPAKTEQTQPAAPAKPTSDIPN
modifications: Atto647N (maleimide dye) on cysteine 142; labelling efficiency 24%

Key:
[1] = biological target: B2; assay: FRET or BRET; ensemble FRET in detergent: 0.55 µM YidC-Atto520 (donor) in 0.03% dodecyl maltoside titrated with increasing SecYEG-Atto647N (acceptor); excitation 516 nm, donor at 538 nm, acceptor at 669 nm; buffer controls for dilution; Kd by Lineweaver-Burk linearisation; conditions: both partners purified
[2] = biological target: B1; assay: as above; conditions: both partners purified

Binder	Kd [1]	stoichiometry N [2]
B1	0.027 ± 0.01 µM	
B2		1
